Data: the FLAb antibody collection

Assay: patients with anti-drug antibodies; higher = more immunogenic

Protein | patients with anti-drug antibodies
unnamed (protein) chain 1: QVQLVQSGAEVKKPGASVKVSCKASGHIFSNYWIQWVRQAPGQGLEWMGEILPGSGHTEYTENFKDRVTMTRDTSTSTVYMELSSLRSEDTAVYYCARYFFGSSPNWYFDVWGQGTLVTVSS chain 2: DIQMTQSPSSLSASVGDRVTITCGASENIYGALNWYQQKPGKAPKLLIYGATNLADGVPSRFSGSGSGTDFTLTISSLQPEDFATYYCQNVLNTPLTFGQGTKVEIK | 0.2%
unnamed (protein) chain 1: QVQLVQSGSELKKPGASVKVSCKASGYTFTNYGMNWVRQAPGQGLEWMGWINTYTGEPTYADDFTGRFVFSLDTSVSTAYLQISSLKAEDTAVYYCARNPINYYGINYEGYVMDYWGQGTLVTVSS chain 2: not shown | 9.4%
unnamed (protein) chain 1: QVQLQQSGTVLARPGASVKMSCKASGYSFTRYWMHWIKQRPGQGLEWIGAIYPGNSDTSYNQKFEGKAKLTAVTSASTAYMELSSLTHEDSAVYYCSRDYGYYFDFWGQGTTLTVSS chain 2: QIVSTQSPAIMSASPGEKVTMTCSASSSRSYMQWYQQKPGTSPKRWIYDTSKLASGVPARFSGSGSGTSYSLTISSMEAEDAATYYCHQRSSYTFGGGTKLEIK | 1.5%
unnamed (protein) chain 1: EVQLVESGGGLVQPGGSLRLSCAVSGLSLTSNSVNWIRQAPGKGLEWVGLIWSNGDTDYNSAIKSRFTISRDTSKSTVYLQMNSLRAEDTAVYYCAREYYGYFDYWGQGTLVTVSS chain 2: DIQMTQSPSSLSASVGDRVTITCLASEGISSYLAWYQQKPGKAPKLLIYGANSLQTGVPSRFSGSGSATDYTLTISSLQPEDFATYYCQQSYKFPNTFGQGTKVEVK | 5%
unnamed (protein) chain 1: QVQLVQSGAEVKKPGSSVKVSCKASGYTFTDQTIHWMRQAPGQGLEWIGYIYPRDDSPKYNENFKGKVTITADKSTSTAYMELSSLRSEDTAVYYCAIPDRSGYAWFIYWGQGTLVTVSS chain 2: DIQMTQSPSSLSASVGDRVTITCKASRDVAIAVAWYQQKPGKVPKLLIYWASTRHTGVPSRFSGSGSRTDFTLTISSLQPEDVADYFCHQYSSYPFTFGSGTKLEIK | 24%
unnamed (protein) chain 1: QVQLQQPGAELVKPGASVKMSCKASGYTFTSYNMHWVKQTPGRGLEWIGAIYPGNGDTSYNQKFKGKATLTADKSSSTAYMQLSSLTSEDSAVYYCARSTYYGGDWYFNVWGAGTTVTVSA chain 2: QIVLSQSPAILSASPGEKVTMTCRASSSVSYIHWFQQKPGSSPKPWIYATSNLASGVPVRFSGSGSGTSYSLTISRVEAEDAATYYCQQWTSNPPTFGGGTKLEIK | 11%
unnamed (protein) chain 1: EVQLVQSGGGLVKPGGSLRLSCAASGFTFSSFAMHWVRQAPGKGLEWISVIDTRGATYYADSVKGRFTISRDNAKNSLYLQMNSLRAEDTAVYYCARLGNFYYGMDVWGQGTTVTVSS chain 2: EIVLTQSPGTLSVSPGERATLSCRASQSIGSSLHWYQQKPGQAPRLLIKYASQSLSGIPDRFSGSGSGTDFTLTISRLEPEDFAVYYCHQSSRLPHTFGQGTKVEIK | 0%
unnamed (protein) chain 1: QVQLVESGGGVVQPGRSLRLSCTASGFTFKNYAMHWVRQAPAKGLEWVATISYDGRNIQYADSVKGRFTFSRDNSQDTLYLQLNSLRPEDTAVYYCARPVRSRWLQLGLEDAFHIWGQGTMVTVSS chain 2: AIRMTQSPSSFSASTGDRVTITCRASQDIRNYVAWYQQKSGKAPKFLIYAASTLQSGVPSRFSGSGSGTDFTLTINSLQSEDFATYYCQQYYNSPPTFGQGTRVEIT | 0%
unnamed (protein) chain 1: EVQLVQSGAEVKKPGASVKVSCKASGYTFTDYNMHWVRQAPGQGLEWMGEINPNSGGAGYNQKFKGRVTMTTDTSTSTAYMELRSLRSDDTAVYYCARLGYDDIYDDWYFDVWGQGTTVTVSS chain 2: DIQMTQSPSSLSASVGDRVTITCRASQDISNYLNWYQQKPGKAPKLLIYYTSRLLSGVPSRFSGSGSGTDFTLTISSLQPEDFATYYCQQGDTLPYTFGGGTKVEIK | 18.1%
unnamed (protein) chain 1: QVQLVQSGAEVKKPGASVKVSCKASGYTFTNYGMNWVRQAPGQGLEWMGWINTYTGEPTYADDFKGRVTMTTDTSTSTAYMELRSLRSDDTAVYYCARIGDSSPSDYWGQGTLVTVSS chain 2: EIVMTQSPATLSVSPGERATLSCKASQSVSNDVVWYQQKPGQAPRLLIYYASNRYTGIPARFSGSGSGTEFTLTISSLQSEDFAVYYCQQDYTSPWTFGQGTKLEIK | 0%
